Molecular target: the molecule itself
Assay: crystal structure

B1: RUN1^TIR-E100A (domain or fragment, grapevine, UniProt V9M398 23-198, looked up)
chain: RTITYDVFLSFRGEDTRFNFTDHLYSALGRRGIRTFRDDKLRRGEAIAPELLKAIEESRSSVIVFSENYARSRWCLDALVKIMECHKDKKDPGHAVFPIFYHVDPSHVRKQEGSFGEAFAGYGENLKDKIPRWRTALTEAANLSGWPLQDGYESNQIKEITDSIFRRLKCKRLDAG
binding result: binds

Source: doi:10.1101/2021.10.02.462850 (bioRxiv, 2021)
